Target: T1, wild-type EGFR (epidermal growth factor receptor) (UniProt P00533 25-1210)
T1 construct: EGFR, wild type, expressed from the plasmid pcDNA3.1-EGFR; Probably the whole human receptor, expressed in cells that have no EGFR of their own; source: MDA-MB-435, transfected (pcDNA3.1-EGFR), in lysate
Experiment: co-IP; lysates of MDA-MB-435 cells transfected with EGFR plasmids, immunoprecipitated with the anti-EGFR antibody IMC-C225; western blot with the anti-S2R^PGRMC1 antibody PGR-UK1; representative of three independent experiments
Details: partners not purified

fold co-precipitated, wild-type EGFR against the EGFR-Δ747-749/A750P mutant: 2.4 fold
B1: S2R^PGRMC1 (sigma-2 receptor / progesterone receptor membrane component 1) (natural protein)
chain: not shown
notes: PGRMC1 (progesterone receptor membrane component 1), endogenous in MDA-MB-435 human breast cancer cells, detected with the antibody PGR-UK1; source: endogenous, MDA-MB-435 lysate

From article PMC4278327, “Pathways driving the endocytosis of mutant and wild-type EGFR in cancer” (Oncoscience, 2014)
